The results in this text go back to article PMC2570331.

Experiment in all cases: split reporter (BiFC, NanoBiT); CFP 1-158 on the N-terminus of α12.2 (WT, Bdel1 or Bdel2), CFP 159-238 on the C-terminus of β3core; HEK-293 cells co-transfected with α2δ1 and an RFP (mCherry or DsRed-Monomer, pooled); median of the cyan/red ratio of single cells
Assay [1] has as its target Bdel1 α12.2 tagged with the CFP 1–158 fragment (rat).
The target in assay [2] is WT α12.2 tagged with the CFP 1–158 fragment (rat).
Assay [3] deals with Bdel2 α12.2 tagged with the CFP 1–158 fragment (rat).

Chain of WT α12.2 tagged with the CFP 1–158 fragment (rat) (Q02294 whole entry, the tested form may be a part): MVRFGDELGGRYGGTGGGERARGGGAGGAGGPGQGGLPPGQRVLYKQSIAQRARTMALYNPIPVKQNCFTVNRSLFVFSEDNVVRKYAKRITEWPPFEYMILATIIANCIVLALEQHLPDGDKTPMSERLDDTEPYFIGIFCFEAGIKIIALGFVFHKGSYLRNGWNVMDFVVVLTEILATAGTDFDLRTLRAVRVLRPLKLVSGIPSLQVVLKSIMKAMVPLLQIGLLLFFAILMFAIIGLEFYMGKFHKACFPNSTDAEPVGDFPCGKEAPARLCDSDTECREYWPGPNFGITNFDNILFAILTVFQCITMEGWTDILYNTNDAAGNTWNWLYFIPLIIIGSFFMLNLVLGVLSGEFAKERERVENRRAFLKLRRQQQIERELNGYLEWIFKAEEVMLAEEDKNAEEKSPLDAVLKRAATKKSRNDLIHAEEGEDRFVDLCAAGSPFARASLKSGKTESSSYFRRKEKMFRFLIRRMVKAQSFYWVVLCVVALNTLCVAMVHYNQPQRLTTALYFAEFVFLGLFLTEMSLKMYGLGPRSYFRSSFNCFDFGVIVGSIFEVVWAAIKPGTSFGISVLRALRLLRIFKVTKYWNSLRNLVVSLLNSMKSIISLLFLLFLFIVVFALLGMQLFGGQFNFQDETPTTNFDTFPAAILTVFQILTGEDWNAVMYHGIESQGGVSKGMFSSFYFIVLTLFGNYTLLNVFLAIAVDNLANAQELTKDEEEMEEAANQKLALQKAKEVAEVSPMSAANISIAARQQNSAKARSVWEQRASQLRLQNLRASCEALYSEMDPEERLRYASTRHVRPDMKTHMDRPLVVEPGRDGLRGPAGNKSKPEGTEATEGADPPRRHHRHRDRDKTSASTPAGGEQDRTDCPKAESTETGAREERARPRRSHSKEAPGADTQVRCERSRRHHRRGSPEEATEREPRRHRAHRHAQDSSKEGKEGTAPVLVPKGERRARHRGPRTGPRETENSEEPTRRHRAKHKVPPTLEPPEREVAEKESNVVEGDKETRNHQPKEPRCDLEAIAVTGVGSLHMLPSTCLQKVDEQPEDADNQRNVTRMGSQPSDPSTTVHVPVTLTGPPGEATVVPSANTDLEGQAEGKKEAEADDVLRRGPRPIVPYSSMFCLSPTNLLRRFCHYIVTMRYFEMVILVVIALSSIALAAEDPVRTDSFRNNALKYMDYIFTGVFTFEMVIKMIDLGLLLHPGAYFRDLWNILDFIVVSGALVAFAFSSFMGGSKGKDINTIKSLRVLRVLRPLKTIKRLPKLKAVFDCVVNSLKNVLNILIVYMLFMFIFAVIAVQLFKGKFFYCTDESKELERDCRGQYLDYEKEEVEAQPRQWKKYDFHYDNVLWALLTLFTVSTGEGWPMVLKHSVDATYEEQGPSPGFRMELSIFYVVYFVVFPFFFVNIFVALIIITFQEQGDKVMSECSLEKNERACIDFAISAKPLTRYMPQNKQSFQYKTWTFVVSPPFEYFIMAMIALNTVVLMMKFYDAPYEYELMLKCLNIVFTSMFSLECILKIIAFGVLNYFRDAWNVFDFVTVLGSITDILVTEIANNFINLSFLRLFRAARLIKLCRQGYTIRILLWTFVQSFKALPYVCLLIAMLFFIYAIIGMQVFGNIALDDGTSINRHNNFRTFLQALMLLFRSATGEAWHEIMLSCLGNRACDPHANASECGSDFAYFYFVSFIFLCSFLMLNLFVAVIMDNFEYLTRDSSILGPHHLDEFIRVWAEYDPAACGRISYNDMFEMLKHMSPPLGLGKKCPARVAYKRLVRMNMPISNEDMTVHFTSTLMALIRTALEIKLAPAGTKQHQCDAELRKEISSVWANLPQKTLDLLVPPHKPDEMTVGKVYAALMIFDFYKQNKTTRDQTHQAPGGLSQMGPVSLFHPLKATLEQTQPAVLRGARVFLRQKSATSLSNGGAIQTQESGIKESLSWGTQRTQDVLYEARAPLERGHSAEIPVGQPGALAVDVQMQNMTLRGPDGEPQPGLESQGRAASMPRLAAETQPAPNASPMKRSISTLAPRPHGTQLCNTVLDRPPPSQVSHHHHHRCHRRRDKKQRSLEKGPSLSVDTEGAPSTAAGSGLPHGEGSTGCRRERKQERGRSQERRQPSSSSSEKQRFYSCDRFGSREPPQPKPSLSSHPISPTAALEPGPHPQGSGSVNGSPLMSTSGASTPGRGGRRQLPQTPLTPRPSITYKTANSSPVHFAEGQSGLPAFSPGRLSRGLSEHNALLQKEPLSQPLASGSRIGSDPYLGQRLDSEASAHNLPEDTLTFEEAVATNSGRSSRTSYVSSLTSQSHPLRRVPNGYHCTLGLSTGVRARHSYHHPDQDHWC

As to “β3-core tagged with the CFP 159–238 fragment (from UniProt P54287 16-366) (domain or fragment)”, the values for the median ratio of cyan (BiFC) to red fluorescence in assay [1], in assay [2] and in assay [3] were 0.77, 0.23 and 0.32, respectively.
